The source of these data is article PMC2676576 (Structure (London, England : 1993), 2009).

The target in one assay is bovine ubiquitin (bovine, UniProt P0CG53 1-76). Description: SPR.
For assay [1], the target named is STAM(10-390) of the ΔCT construct (human, UniProt Q92783 10-390). Briefly: AUC.
STAM(10-390) of the ΔCT construct, sequence (Q92783 10-390, stated change not applied): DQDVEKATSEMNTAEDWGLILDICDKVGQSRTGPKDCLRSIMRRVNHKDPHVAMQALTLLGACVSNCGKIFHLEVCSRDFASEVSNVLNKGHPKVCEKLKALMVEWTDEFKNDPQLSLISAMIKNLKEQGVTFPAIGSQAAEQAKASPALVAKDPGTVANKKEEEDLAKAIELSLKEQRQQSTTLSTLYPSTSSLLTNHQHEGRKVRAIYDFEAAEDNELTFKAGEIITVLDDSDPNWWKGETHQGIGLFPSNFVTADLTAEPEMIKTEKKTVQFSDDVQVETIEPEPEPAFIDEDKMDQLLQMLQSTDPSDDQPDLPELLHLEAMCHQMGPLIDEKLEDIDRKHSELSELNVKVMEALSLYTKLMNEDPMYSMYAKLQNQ

B1: his-tagged STAM VHS domain (residues 1-143) (domain or fragment)
chain: not shown
What is called Kd is the concentration at which binding is half-saturated. The low end stands for higher affinity, the high end for lower affinity. With B1, binding with bovine ubiquitin was characterised by a dissociation constant (Kd) of 157 µM.

B2: Hrs(1-557) of the ΔCT construct (domain or fragment, human, UniProt O14964 1-557, looked up)
chain: MGRGSGTFERLLDKATSQLLLETDWESILQICDLIRQGDTQAKYAVNSIKKKVNDKNPHVALYALEVMESVVKNCGQTVHDEVANKQTMEELKDLLKRQVEVNVRNKILYLIQAWAHAFRNEPKYKVVQDTYQIMKVEGHVFPEFKESDAMFAAERAPDWVDAEECHRCRVQFGVMTRKHHCRACGQIFCGKCSSKYSTIPKFGIEKEVRVCEPCYEQLNRKAEGKATSTTELPPEYLTSPLSQQSQLPPKRDETALQEEEELQLALALSQSEAEEKERLRQKSTYTSYPKAEPMPSASSAPPASSLYSSPVNSSAPLAEDIDPELARYLNRNYWEKKQEEARKSPTPSAPVPLTEPAAQPGEGHAAPTNVVENPLPETDSQPIPPSGGPFSEPQFHNGESEESHEQFLKALQNAVTTFVNRMKSNHMRGRSITNDSAVLSLFQSINGMHPQLLELLNQLDERRLYYEGLQDKLAQIRDARGALSALREEHREKLRRAAEEAERQRQIQLAQKLEIMRQKKQEYLEVQRQLAIQRLQEQEKERQMRLEQQKQTVQMR
On to B2, for which, in assay [1], the “stoichiometry N” value is 1 Hrs:STAM.
